Laboratory results from patent US20230303690A1 (published 2023).
Substitutions are numbered along the chain they refer to. Like-named read-outs stand apart in the source and are kept apart here.

T1: human LAG3 expressed on cells (human, UniProt P18627 23-525)
T1 sequence (looked up): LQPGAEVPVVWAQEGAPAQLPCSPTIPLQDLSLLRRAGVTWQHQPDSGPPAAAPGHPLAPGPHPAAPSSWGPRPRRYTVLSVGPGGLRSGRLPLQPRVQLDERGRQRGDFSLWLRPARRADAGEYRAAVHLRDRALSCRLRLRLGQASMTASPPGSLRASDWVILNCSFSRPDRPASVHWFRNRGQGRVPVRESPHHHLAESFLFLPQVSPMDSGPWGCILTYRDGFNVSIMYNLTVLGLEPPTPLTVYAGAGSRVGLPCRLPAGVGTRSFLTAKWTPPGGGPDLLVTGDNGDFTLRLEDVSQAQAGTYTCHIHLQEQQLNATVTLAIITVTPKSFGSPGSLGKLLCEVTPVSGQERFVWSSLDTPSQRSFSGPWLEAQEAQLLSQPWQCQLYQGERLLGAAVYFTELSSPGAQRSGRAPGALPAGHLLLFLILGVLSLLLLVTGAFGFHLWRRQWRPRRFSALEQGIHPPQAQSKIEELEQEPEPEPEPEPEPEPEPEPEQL

T2: LAG3 Protein, Human, Recombinant (His Tag) (Sino Biological Catalog No. 16498-H08H) (human, UniProt P18627 23-450)
T2 construct: Bought protein; also called hLAG3-His; LAG3-His; not shown: His tag
T2 sequence (looked up): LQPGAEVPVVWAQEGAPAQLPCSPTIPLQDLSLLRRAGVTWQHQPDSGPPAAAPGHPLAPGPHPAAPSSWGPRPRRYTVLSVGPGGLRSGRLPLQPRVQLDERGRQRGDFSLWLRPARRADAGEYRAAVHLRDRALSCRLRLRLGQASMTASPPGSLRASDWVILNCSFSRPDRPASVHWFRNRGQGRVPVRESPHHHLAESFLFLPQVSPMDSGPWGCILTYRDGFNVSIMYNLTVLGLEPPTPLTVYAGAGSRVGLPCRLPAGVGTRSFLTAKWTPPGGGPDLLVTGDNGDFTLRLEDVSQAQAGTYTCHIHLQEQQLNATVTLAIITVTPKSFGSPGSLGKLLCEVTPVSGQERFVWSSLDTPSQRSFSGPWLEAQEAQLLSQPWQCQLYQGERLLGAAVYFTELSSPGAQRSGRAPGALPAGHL

B1: sdAb No. 21 (VHH)
VHH: QLQLVESGGGLVQPGGSLRLSCAASGLTLDGYAIAWFRQAPGKEREGLSCISGTDGSTHYLDSVKGRFTISRDNGKNTMALQMNSLQFGDTAIYYCAARRGSCSGSWTYWGQGTQITVSS
notes: Fc of the tested form not described; also called sdAb 21; not shown: Fc part implied by anti-human Fc capture
B2: sdAb No. 18 (VHH)
VHH: QVQLVESGGGLVQPGGSLRLSCAASGFTLNEHAIGWFRRAPGKEREGVSCISSSDGSTYYHDSVKGRFNMSRDDAKNSVYLQMSSLKPEDTAIYYCAAALGRDCQGGQWKTSSWGQGTQVTVSS
notes: Fc of the tested form not described; also called sdAb 18; not shown: Fc part implied by anti-human Fc capture
B3: sdAb No. 24 (VHH)
VHH: B2 VHH with V2L, R39Q, N69T, S78T, S84N, P88A
notes: Fc of the tested form not described; also called sdAb 24; not shown: Fc part implied by anti-human Fc capture

Tests used:
[1] = molecular target: T1, human LAG3 expressed on cells; assay: cell-based or functional assay
[2] = molecular target: T1, human LAG3 expressed on cells; assay: cell-based or functional assay; remark: listed apart in the source
[3] = molecular target: T2, LAG3 Protein, Human, Recombinant (His …); assay: SPR binning on LAG3-His; competitor 1
Procedure: (§1) The chip surface was regenerated after each cycle with 25 mM NaOH followed by HBS-EP wash provided in the kit.

[4] = molecular target: T2, LAG3 Protein, Human, Recombinant (His …); assay: SPR binning on LAG3-His; competitor 17
Procedure: as §1

[5] = molecular target: T2, LAG3 Protein, Human, Recombinant (His …); assay: SPR binning on LAG3-His; competitor 18
Procedure: as §1

[6] = molecular target: T2, LAG3 Protein, Human, Recombinant (His …); assay: SPR binning on LAG3-His; competitor 20
Procedure: as §1

[7] = molecular target: T2, LAG3 Protein, Human, Recombinant (His …); assay: SPR binning on LAG3-His; competitor 21
Procedure: as §1

[8] = molecular target: T2, LAG3 Protein, Human, Recombinant (His …); assay: SPR binning on LAG3-His; competitor 24
Procedure: as §1

[9] = molecular target: T2, LAG3 Protein, Human, Recombinant (His …); assay: SPR binning on LAG3-His; competitor 25
Procedure: as §1

[10] = molecular target: T2, LAG3 Protein, Human, Recombinant (His …); assay: SPR binning on LAG3-His; competitor 27
Procedure: as §1

[11] = molecular target: T2, LAG3 Protein, Human, Recombinant (His …); assay: SPR binning on LAG3-His; competitor 37
Procedure: as §1

[12] = molecular target: T2, LAG3 Protein, Human, Recombinant (His …); assay: SPR binning on LAG3-His; competitor 73
Procedure: as §1

[13] = molecular target: T2, LAG3 Protein, Human, Recombinant (His …); assay: SPR binning on LAG3-His; competitor BMS
Procedure: as §1

[14] = molecular target: T2, LAG3 Protein, Human, Recombinant (His …); assay: SPR (Biacore), sdAb captured by anti-human Fc, LAG3-His analyte
Procedure: The binding of the single domain antibodies to recombinant human LAG3 protein (rhLAG3) was examined by Biacore™ assay. […] The coating was carried out according to the manufacturer’s instructions accompanying the kit (Catalog No. BR-1008-39, GE). […] The chip surface was regenerated after each cycle with 25 mM NaOH followed by HBS-EP wash provided in the kit.

[15] = molecular target: T1, human LAG3 expressed on cells; assay: cell-based or functional assay; remark: listed apart in the source

Binder | IL-2, % of BMS, at 0.005080526 ug/mL [1] | IL-2, % of BMS, at 0.015241579 ug/mL [1] | IL-2, % of BMS, at 0.045724737 ug/mL [1] | IL-2, % of BMS, at 0.137174211 ug/mL [1] | IL-2, % of BMS, at 0.411522634 ug/mL [1] | IL-2, % of BMS, at 1.234567901 ug/mL [1] | IL-2, % of BMS, at 3.703703704 ug/mL [1] | IL-2, % of BMS, at 11.11111111 ug/mL [1] | IL-2, % of BMS, at 33.33333333 ug/mL [1] | IL-2, % of BMS, at 100 ug/mL [1] | EC50 for IL-2 rescue, hLAG3 Jurkat T system [2] | Efficacy (IL-2 production, BMS = 100%) [2] | RU [3] | RU [4] | RU [5] | RU [6] | RU [7] | RU [8] | RU [9] | RU [10] | also measured
B1 | 10.5% | 13.7% | 13.4% | 21.7% | 24.6% | 27.7% | 32.8% | 31.7% | 38.9% | 35% | 3.41 nM | 31% | -4.7 RU | -12 RU | -10.3 RU | -12.6 RU | -19.1 RU | -18.9 RU | 179 RU | -14.8 RU | RU [11]: -17.3 RU; RU [12]: -19.5 RU; RU [13]: 194 RU; Kd [14]: 0.278 nM; koff [14]: 0.00178 s⁻¹; kon [14]: 6.41e+06 M⁻¹ s⁻¹
B2 | 7.39% | 10.9% | 12.9% | 5.27% | 6.53% | 15.5% | 35.1% | 45.5% | 61.7% | 60.9% | 60.6 nM | 51.9% | -9.5 RU | -14.7 RU | -9.1 RU | -13.4 RU | -11.4 RU | -9.9 RU | 274 RU | -5.3 RU | IL-2, % of BMS, at 0.005080526 ug/mL [15]: 7.39%; IL-2, % of BMS, at 0.015241579 ug/mL [15]: 10.9%; IL-2, % of BMS, at 0.045724737 ug/mL [15]: 12.9%; IL-2, % of BMS, at 0.137174211 ug/mL [15]: 5.27%; IL-2, % of BMS, at 0.411522634 ug/mL [15]: 6.53%; IL-2, % of BMS, at 1.234567901 ug/mL [15]: 15.5%; IL-2, % of BMS, at 3.703703704 ug/mL [15]: 35.1%; IL-2, % of BMS, at 11.11111111 ug/mL [15]: 45.5%; IL-2, % of BMS, at 33.33333333 ug/mL [15]: 61.7%; IL-2, % of BMS, at 100 ug/mL [15]: 60.9%; RU [11]: -8.5 RU; RU [12]: -11.1 RU; RU [13]: 26.9 RU; koff [14]: 3.69e-07 s⁻¹; kon [14]: 2.31e+06 M⁻¹ s⁻¹
B3 | 10.7% | 2.74% | 3.44% | 10.8% | 1.26% | 17.8% | 34.9% | 47.2% | 57.7% | 48.2% | 35.8 nM | 44.7% | -8.8 RU | -13.6 RU | -11.2 RU | -12.9 RU | -12 RU | -10.1 RU | 33.2 RU | -6.6 RU | RU [11]: -8.5 RU; RU [12]: -11.3 RU; RU [13]: 30.5 RU; Kd [14]: 0.038 nM; koff [14]: 3.39e-05 s⁻¹; kon [14]: 894000 M⁻¹ s⁻¹
